Patent US20240132578A1

Legend:
Experiment in all cases: cell-based or functional assay
[1] = target: HIV-1 JR-CSF Env D477A (HIV-1 JR-CSF) (UniProt P20871)
[2] = target: HIV-1 Env of isolate MGRM-G-019 (subtype G), on pseudovirus (HIV-1)
[3] = target: HIV-1 Env of isolate MGRM-G-011 (subtype G), on pseudovirus (HIV-1)
[4] = target: HIV-1 Env of isolate MGRM-G-017 (subtype G), on pseudovirus (HIV-1)
[5] = target: HIV-1 Env of isolate MGRM-C-022 (subtype C) (HIV-1)
[6] = target: HIV-1 Env of isolate MGRM-C-020 (subtype C) (HIV-1)
[7] = target: HIV-1 Env of isolate MGRM-C-007 (subtype C) (HIV-1)
[8] = target: HIV-1 Env of isolate MGRM-C-015 (subtype C) (HIV-1)
[9] = target: HIV-1 Env of isolate MGRM-G-001 (subtype G), on pseudovirus (HIV-1)
[10] = target: HIV-1 Env of isolate MGRM-C-001 (subtype C) (HIV-1)
[11] = target: HIV-1 Env of isolate MGRM-C-012 (subtype C) (HIV-1)
[12] = target: HIV-1 Env of isolate MGRM-G-006 (subtype G), on pseudovirus (HIV-1)
[13] = target: HIV-1 Env of isolate MGRM-C-013 (subtype C) (HIV-1)
[14] = target: aMLV envelope, on pseudovirus (negative control)
[15] = target: HIV-1 Env of isolate MGRM-G-013 (subtype G), on pseudovirus (HIV-1)
[16] = target: HIV-1 Env of isolate MGRM-C-017 (subtype C) (HIV-1)
[17] = target: HIV-1 Env of isolate MGRM-C-024 (subtype C) (HIV-1)
[18] = target: HIV-1 Env of isolate MGRM-C-025 (subtype C) (HIV-1)
[19] = target: HIV-1 Env of isolate MGRM-C-019 (subtype C) (HIV-1)
[20] = target: HIV-1 Env of isolate MGRM-G-024 (subtype G), on pseudovirus (HIV-1)
[21] = target: HIV-1 Env of isolate MGRM-C-014 (subtype C) (HIV-1)
[22] = target: HIV-1 Env of isolate MGRM-C-023 (subtype C) (HIV-1)
[23] = target: HIV-1 Env of isolate MGRM-C-002 (subtype C) (HIV-1)
[24] = target: HIV-1 Env of isolate MGRM-C-010 (subtype C) (HIV-1)
[25] = target: HIV-1 Env of isolate MGRM-G-028 (subtype G), on pseudovirus (HIV-1)
[26] = target: HIV-1 Env of isolate MGRM-G-009 (subtype G), on pseudovirus (HIV-1)
[27] = target: HIV-1 Env of isolate MGRM-G-025 (subtype G), on pseudovirus (HIV-1)
[28] = target: HIV-1 Env of isolate MGRM-G-015 (subtype G), on pseudovirus (HIV-1)
[29] = target: HIV-1 Env of isolate MGRM-C-009 (subtype C) (HIV-1)
[30] = target: HIV-1 Env of isolate MGRM-C-006 (subtype C) (HIV-1)
[31] = target: HIV-1 Env of isolate MGRM-G-016 (subtype G), on pseudovirus (HIV-1)
[32] = target: HIV-1 Env of isolate MGRM-C-027 (subtype C) (HIV-1)
[33] = target: HIV-1 Env of isolate MGRM-C-026 (subtype C) (HIV-1)
[34] = target: HIV-1 Env of isolate MGRM-G-004 (subtype G), on pseudovirus (HIV-1)
[35] = target: HIV-1 Env of isolate 93MW959 (subtype C) (HIV-1)
[36] = target: HIV-1 Env of isolate MGRM-G-027 (subtype G), on pseudovirus (HIV-1)
[37] = target: HIV-1 Env of isolate MGRM-G-014 (subtype G), on pseudovirus (HIV-1)
[38] = target: HIV-1 JR-CSF Env R476A (HIV-1 JR-CSF) (UniProt P20871)
[39] = target: HIV-1 Env of isolate MGRM-C-028 (subtype C) (HIV-1)
[40] = target: HIV-1 Env of isolate MGRM-C-008 (subtype C) (HIV-1)
[41] = target: HIV-1 Env of isolate MGRM-C-005 (subtype C) (HIV-1)
[42] = target: HIV-1 Env of isolate 97ZA012 (subtype C) (HIV-1)
[43] = target: HIV-1 Env of isolate 98IN022 (subtype C) (HIV-1)
[44] = target: HIV-1 Env of isolate MGRM-C-004 (subtype C) (HIV-1)
[45] = target: HIV-1 Env of isolate APV_17 (subtype B) (HIV-1)
[46] = target: HIV-1 Env of isolate 93TH305 (subtype B) (HIV-1)
[47] = target: HIV-1 Env of isolate APV 13 (subtype B) (HIV-1)
[48] = target: HIV-1 Env of isolate 6535.3 (subtype B) (HIV-1)
[49] = target: HIV-1 Env of isolate 92BR020 (subtype B) (HIV-1)
[50] = target: HIV-1 JR-CSF Env D474A (HIV-1 JR-CSF) (UniProt P20871)
[51] = target: HIV-1 Env of isolate APV 6 (subtype B) (HIV-1)

B1: PGT-123 (antibody, V domains shown)
VH: QLHLQESGPGLVKPPETLSLTCSVSGASINDAYWSWIRQSPGKRPEWVGYVHHSGDTNYNPSLKRRVTFSLDTAKNEVSLKLVDLTAADSATYFCARALHGKRIYGIVALGELFTYFYMDVWGKGTAVTVSS
VL: SSMSVSPGETAKISCGKESIGSRAVQWYQQKPGQPPSLIIYNNQDRPAGVPERFSASPDFRPGTTATLTITNVDAEDEADYYCHIYDARGGTNWVFDRGTTLTVL
**Q.** Which Fold IC50 increase relative to wild-type [1] does the source give for B1 here?
**A.** 2.3 fold

**Q.** What about the IC50 (µg/mL), neutralization of pseudovirus [2] of the same binder?
**A.** 0.008 µg/mL

**Q.** And the IC50 (µg/mL), neutralization of pseudovirus [3]?
**A.** 14.9 µg/mL

**Q.** And the IC50 (µg/mL), neutralization of pseudovirus [4]?
**A.** 0.026 µg/mL

**Q.** And the IC50 (µg/mL), pseudovirus neutralization [5]?
**A.** 0.01 µg/mL

**Q.** What about the IC50 (µg/mL), pseudovirus neutralization [6] of the same binder?
**A.** > 50 µg/mL

**Q.** And the IC50 (µg/mL), pseudovirus neutralization [7]?
**A.** 0.547 µg/mL

**Q.** What about the IC50 (µg/mL), pseudovirus neutralization [8] of the same binder?
**A.** 13.1 µg/mL

**Q.** And the IC50 (µg/mL), neutralization of pseudovirus [9]?
**A.** 0.009 µg/mL

**Q.** And the IC50 (µg/mL), pseudovirus neutralization [10]?
**A.** 42.4 µg/mL

**Q.** And the IC50 (µg/mL), pseudovirus neutralization [11]?
**A.** 0.605 µg/mL

**Q.** What about the IC50 (µg/mL), neutralization of pseudovirus [12] of the same binder?
**A.** > 50 µg/mL

**Q.** What about the IC50 (µg/mL), pseudovirus neutralization [13] of the same binder?
**A.** 14.9 µg/mL

**Q.** What about the IC50 (µg/mL), neutralization of pseudovirus [14] of the same binder?
**A.** > 50 µg/mL

**Q.** And the IC50 (µg/mL), neutralization of pseudovirus [15]?
**A.** 3.97 µg/mL

**Q.** What about the IC50 (µg/mL), pseudovirus neutralization [16] of the same binder?
**A.** 0.01 µg/mL

**Q.** And the IC50 (µg/mL), pseudovirus neutralization [17]?
**A.** 0.195 µg/mL

**Q.** And the IC50 (µg/mL), pseudovirus neutralization [18]?
**A.** 13.3 µg/mL

**Q.** What about the IC50 (µg/mL), pseudovirus neutralization [19] of the same binder?
**A.** > 50 µg/mL

**Q.** What about the IC50 (µg/mL), neutralization of pseudovirus [20] of the same binder?
**A.** 0.032 µg/mL

**Q.** What about the IC50 (µg/mL), pseudovirus neutralization [21] of the same binder?
**A.** 1 µg/mL

**Q.** What about the IC50 (µg/mL), pseudovirus neutralization [22] of the same binder?
**A.** 0.011 µg/mL

**Q.** What about the IC50 (µg/mL), pseudovirus neutralization [23] of the same binder?
**A.** 0.01 µg/mL

**Q.** What about the IC50 (µg/mL), pseudovirus neutralization [24] of the same binder?
**A.** > 50 µg/mL

**Q.** What about the IC50 (µg/mL), neutralization of pseudovirus [25] of the same binder?
**A.** 0.008 µg/mL

**Q.** And the IC50 (µg/mL), neutralization of pseudovirus [26]?
**A.** 33.5 µg/mL

**Q.** And the IC50 (µg/mL), neutralization of pseudovirus [27]?
**A.** 0.046 µg/mL

**Q.** What about the IC50 (µg/mL), neutralization of pseudovirus [28] of the same binder?
**A.** > 50 µg/mL

**Q.** What about the IC50 (µg/mL), pseudovirus neutralization [29] of the same binder?
**A.** > 50 µg/mL

**Q.** And the IC50 (µg/mL), pseudovirus neutralization [30]?
**A.** 0.021 µg/mL

**Q.** And the IC50 (µg/mL), neutralization of pseudovirus [31]?
**A.** > 50 µg/mL

**Q.** And the IC50 (µg/mL), pseudovirus neutralization [32]?
**A.** 0.02 µg/mL

**Q.** And the IC50 (µg/mL), pseudovirus neutralization [33]?
**A.** 0.001 µg/mL

**Q.** What about the IC50 (µg/mL), neutralization of pseudovirus [34] of the same binder?
**A.** 0.181 µg/mL

**Q.** What about the IC50 (µg/mL), pseudovirus neutralization [35] of the same binder?
**A.** 0.011 µg/mL

**Q.** And the IC50 (µg/mL), neutralization of pseudovirus [36]?
**A.** 0.182 µg/mL

**Q.** What about the IC50 (µg/mL), neutralization of pseudovirus [37] of the same binder?
**A.** 0.005 µg/mL

**Q.** What about the Fold IC50 increase relative to wild-type [38] of the same binder?
**A.** 2 fold

**Q.** And the IC50 (µg/mL), pseudovirus neutralization [39]?
**A.** 0.402 µg/mL

**Q.** And the IC50 (µg/mL), pseudovirus neutralization [40]?
**A.** 0.011 µg/mL

**Q.** What about the IC50 (µg/mL), pseudovirus neutralization [41] of the same binder?
**A.** 0.012 µg/mL

**Q.** What about the IC50 (µg/mL), pseudovirus neutralization [42] of the same binder?
**A.** 0.002 µg/mL

**Q.** And the IC50 (µg/mL), pseudovirus neutralization [43]?
**A.** 0.011 µg/mL

**Q.** What about the IC50 (µg/mL), pseudovirus neutralization [44] of the same binder?
**A.** 0.009 µg/mL

B2: PGT-130 (antibody, V domains shown)
VH: QVQLQESGPGLVKPAETLSLTCSVSGESINTGHYYWGWVRQVPGKGLEWIGHIHYTTAVLHNPSLKSRLTIKIYTLRNQITLRLSNVTAADTAVYHCVRSGGDILYYYEWQKPHWFSPWGPGIHVTVSS
VL: QSALTQPPSASGSLGQSVTISCNGTSSDIGGWNFVSWYQQFPGRAPRLIIFEVNKRPSGVPGRFSGSKSGNSASLTVSGLQSDDEGQYFCSSLFGRWDVVFGGGTKLTVL
**Q.** Which IC50 (µg/mL), pseudovirus neutralization [45] does the source give for B2 here?
**A.** 10.7 µg/mL

**Q.** And the IC50 (µg/mL), neutralization of pseudovirus [2]?
**A.** 27.9 µg/mL

**Q.** What about the IC50 (µg/mL), neutralization of pseudovirus [3] of the same binder?
**A.** > 50 µg/mL

**Q.** And the IC50 (µg/mL), neutralization of pseudovirus [4]?
**A.** > 50 µg/mL

**Q.** And the IC50 (µg/mL), neutralization of pseudovirus [9]?
**A.** 0.0198 µg/mL

**Q.** What about the IC50 (µg/mL), pseudovirus neutralization [46] of the same binder?
**A.** 0.021 µg/mL

**Q.** What about the IC50 (µg/mL), pseudovirus neutralization [47] of the same binder?
**A.** 0.052 µg/mL

**Q.** What about the IC50 (µg/mL), neutralization of pseudovirus [12] of the same binder?
**A.** > 50 µg/mL

**Q.** And the IC50 (µg/mL), neutralization of pseudovirus [14]?
**A.** > 50 µg/mL

**Q.** What about the IC50 (µg/mL), neutralization of pseudovirus [15] of the same binder?
**A.** > 50 µg/mL

**Q.** What about the IC50 (µg/mL), pseudovirus neutralization [48] of the same binder?
**A.** 0.031 µg/mL

**Q.** What about the IC50 (µg/mL), neutralization of pseudovirus [20] of the same binder?
**A.** 5.84 µg/mL

**Q.** What about the IC50 (µg/mL), neutralization of pseudovirus [25] of the same binder?
**A.** 0.074 µg/mL

**Q.** And the IC50 (µg/mL), neutralization of pseudovirus [26]?
**A.** > 50 µg/mL

**Q.** And the IC50 (µg/mL), neutralization of pseudovirus [27]?
**A.** 8.45 µg/mL

**Q.** What about the IC50 (µg/mL), neutralization of pseudovirus [28] of the same binder?
**A.** > 50 µg/mL

**Q.** What about the IC50 (µg/mL), pseudovirus neutralization [49] of the same binder?
**A.** 1.4 µg/mL

**Q.** What about the IC50 (µg/mL), neutralization of pseudovirus [31] of the same binder?
**A.** > 50 µg/mL

**Q.** And the Fold IC50 increase relative to wild-type [50]?
**A.** 2 fold

**Q.** What about the IC50 (µg/mL), pseudovirus neutralization [51] of the same binder?
**A.** > 50 µg/mL

**Q.** What about the IC50 (µg/mL), neutralization of pseudovirus [34] of the same binder?
**A.** > 50 µg/mL

**Q.** What about the IC50 (µg/mL), neutralization of pseudovirus [36] of the same binder?
**A.** 4.14 µg/mL

**Q.** And the IC50 (µg/mL), neutralization of pseudovirus [37]?
**A.** 2.23 µg/mL
